test: yeast display, Sf9 membrane polyspecificity reagent, FACS + sequencing; frameworks hold sequencing errors
In short: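 A nanobody's polyreactivity label depends on the gate it was sorted from. Yeast display cells were stained with 10% biotinylated, detergent-solubilized Sf9 membrane reagent for 1 hour at 4 °C, enriched on streptavidin microbeads and sorted by FACS. The low and high (top ~1%) gates were set on anti-HA fluorescence for expression and streptavidin fluorescence for reagent binding.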

Sequence	polyreactivity (PSR sort gate)
QVQLVESGGGLVQAGGSLRLSSAASGYIFDWNAMGWYRQAPGKERELVAAISSGGRTNYADSVKGRFTISRDNAKNTVYLQMNSLKPEDTAVYYCAAVYTDPYVEYDYWGQGTQVTVSS	low polyreactivity
QVQLVESGGGLVQGGGSLRLSCAASGLIFSYYAMGWYRQAPGKERELVAAISRGGATNYADSVKGRFTISRDTAKNTVYLQMNSLKPEDTAVYYCSARFVLRRDYGYWGQGTQVTVSS	high polyreactivity
QVQLVESGGGLVQAGGSLRLSCDASGFTFYYYTMGWYRQAPGKERELVAAITWRGGSTNYADSVKGRFTISRDNAKNTVYVQMNSLKPEDTAVYYCAAVTYWFWPGMDYWGQGTQVTVSS	low polyreactivity
QVQLVETRGGLVQAGGSLRLSCAASGSIFLQNAMGWYRQAPGKERELVAAITNGGSTNYADSVKGRFTISRDNAKNTVYLQMNSLKPEDTAVYYCAAYPLYTGSYDRGGYWGQGTQVTVSS	low polyreactivity
QVQLVESGGGLVQAGGSLRLSCSASGSIFSNAMGWYRQAPGKERELVAAITGRGGRTYYADSVKGRFTITRDNAKNSVYLQMNSLKPEDTAVYYCARDSPWSSRYRYRAFDYWGQGTQVTVSS	high polyreactivity
QVQIVESGGGLVQAGGSLRLSCAASGSTFFANTMGWYRQAPGKERELVAAISWSSVRTYYADSVKGRFTISRDHAKNTVYLQMNSLKPEDTAVYYCAAYSRFRYDYWGQGTQVTVSS	high polyreactivity
QVQLVESGGGLVQAGGSLRLSCAASGRIFYPNGMGWYRQAPGKERELVAAITGSGGSTYYADSVKGRFTISRDNAKNTVYLQMNSLIPEDTAVYYCAATWRYYLYPLGPHEFDYWGQGTQVTVSS	low polyreactivity
QVQLVETGGGLVQAGGSLRLSCAASGRISQNAMGWYRQAPGKERELVAAITFSGGSTYYADSVKGRFTISRDNAKNTVYIQMNSLKAEDTAVYYCNVRQYTDGMKYDYWGQGTQVTVSA	low polyreactivity
QVQLVESGGGLVQAGGSLRLSCAASGSIFYHYAMGWYRQAPGKEWELVAAITITGGSTYYADSVKGRFTISRDNAKNTVYLQMNSLKPEDTAVYYCAAEGWYGYQWFDYWGQGTQVTVSS	high polyreactivity
QVQLVESGGGLVQAGGSLRLSCAASGLTIFRNAMGWYRQAPGKEREFVAGITSTDGSTYYADSVKGRFTISRDNAKNTVYLQMNSLKPEDTAVYYCAAAYRVRGRTYDSWGQGTQVTVSS	high polyreactivity
QVQLVESGGGLVQAGGSLRLSCAASGFTFGFYAMGWYRQAPGKERELVAAISKRGGSTYYADSVKGRFTISRDNAKNTVYLQMNSLKPEDTAVYYCAAVYTQSRGWEYDYWGQGTQVTVSS	high polyreactivity
QVQLVESGGGLVQAGGSLRLSCAASGSILYPYAMGWYRQAPGKEREFVAAITYGGGRTYYADSVKGRFTISRDNEKNTVYLHMNSLKPEDTAVYYCAARYTYSYPLFGSWGQGTQVTVSS	high polyreactivity
QVQLVESGGGLVQAGGSLRLSCAASGFIFWRYTMGWYRQAPGKERELVAVISWRGDNTYADSVEGRFTISRDNAKNTVYLQMNSLKPEDTAVYYCGVYRYDYWGQGTQVTVSS	low polyreactivity
QVQLVESGGGLVQAGGSLRLSCAASGSIFSWSAMGWYRQAPGKVRELVAGITWTGGSTYYADSVKGRFTISRDNAKNTVYLQRNSLKPEDTAVYYCNARRATYRKYTPVPFDRYDYWGQGTQVTVSS	high polyreactivity
QVQLEESGGGLVQAGGSLRLSCAASGRIFNTNAMGSYRQAPGKERELVAGITYSGDSTYYADSVKGRFTISRDNAKNTVYLQMNSLKPEDTAVYYCATDPASPYLYDYWGQGTQVTVSS	low polyreactivity
QVQLVESGGGLVQAGGSLRLSCAASGIIFKYYAMGWYRQAPGKERELVAAISWTGDSTYADSVKGRFTISRDNAKNTVYLQMNSLKPEDTAVYYCAVAFRRVRSLGEGYWGQGTQVTVSS	low polyreactivity
QVQLVESGGGLVQAGGSLRLSCAASGFIFWSNAMGWYRQAPGKERELVAAINSSGGRTYYADSVKGRFTISRDNAKNTVYLQMNSLKPEDTAVYYCAARLHSPRYRYDYWGQGTQVTVSS	high polyreactivity
QVQHVESGGGLVQAGGSLRLSCAASVRTFIYYAMGWYRQAPGKERELVASITTGGRTYYADSVKGRFTISRDNAKNTVYLQMNSLKPEDTAVYYCNARWYRTGSTYHEDYWGQGTQVTVSS	high polyreactivity
QVQLVESGGGLVQAGGSLRLSCAASGLTFGGNAMGWYRQAPGKERELVAAISGSGGRTYYADSVKGRFTISRDNEKNTVYLQMNSLKPEDTAVYYCNAATNRRTSDYWGQGTQVTVSS	high polyreactivity
QVQLVESGGGLVQAGGSLRLSCAASGLILSTYAMGWYRQAPGKERELVAAITWRSGSTYYADSVKGRFTISRDNAKNTVYLQMNSLKPEDTAVYYCNVAPTFPYNGYEYWGQGTQVTVSS	high polyreactivity
QVQLVESGGGLVQAGGSLRLSCAASGRTLGGYTMGWYRQAPGKERELVAAITTGGSTNYADSVKGRFTISRDNAKNTVYLQMNSLKPEDTAVYYCATELVFDKRYWYDYWGQGTQVTVSS	low polyreactivity
QVQLVESGGGLVQAGGSLRLSCAASGSTLRYYAMGWYRQAPGKETEFVAAITASGVTTYYADSVKGRFTISRDNAKNTVYLQMNSLKPEDTAVYYCAARLYYNYRDRYNYWGQGTQVTVSS	high polyreactivity

Sequence	polyreactivity (PSR sort gate)
QDQLVESGGGLVQAGGSLRLSCAASGFTFTRNAMGWYRQAPGKERELVAAISRGGSTNYADSVKGRFTISRDNAKNTVYLQMNSLKPEDTAVYYCAKVRTRGTPGVDYYYWGQGTQVTVSS	high polyreactivity
QVQIVESVGGLFQAGGTLRLICAASGLTFRSYTMGWYRQAPGKERELVAAISSGGSTYYADSVKGRFTISRDNAKNTVYLQMNSLKPEDTAVYYCAARAPWPKWGYYYWGQGTQVTVSS	high polyreactivity
QVQLVESGGGLVEAGGSLRLSCAASGRTFRYYAMGWYRQAPGKVREFVAAISTSGGRTYYADSVKGRFTISRDNAKNTVYLQMNSLKPEDTAVYYCAAVSAPRFGMDYLGQGTQVTVSS	high polyreactivity
QVQLVDSGGGFFQAGGSLRLSCAPSGITFVVYAMGWYRQAPGKERDLVAAITAGGSTYADSVKGRFTISRDNAKTTVYLQMNSLKPEDTAVYDCNTGLYLYVGLGDHDYWGQGTQVTVSS	low polyreactivity
QVQLVESGGGLVQAGGSLRLSCAASGRTILVYAMGWYRQAPGKERELVAAISRSGGSTYYADSVKGRFTISRDNAKNTVYLQMNSLKPEDTAVYYCAAKNTGRYYWGQGTQVTVSS	high polyreactivity
QVQLVETGGGLVQAGGSLGLSCAASGRTFGVNAMGWYRQAPGKERELVAAITRGGNTYYADSVKGRFTISRDNAKNTVYLQMNSLKPEDTAVYYCAATGWLRIDRPYTYTYGYWGQGTQVTVSS	high polyreactivity
QVQLVESGGGLVQAGGSLRLSCAASGSTFRLNAMGRYRQAPGKERELVAAISRSTGTTHYADSVKGRFTISRDNAKNTVYLQMKSLKPEDTAVYYCATDRAKWHKNGDLGYWGQGTQVTVSS	low polyreactivity
QVQLVESGGGLVQAGGSLRLSCAASGLTFANYVMGWYRQAPGKEREMVAAISRSGGSTYYADSVKGRFTISRDNAKYTVYLQMNSLKPEDTAVYYCAAAAWDPKGSRYDYWGQGTQVTVSS	low polyreactivity
QVQLVESGGGLVQAGGSLRLSCAASGRIFGDYAMGWYRKAPGKERELLAAISWSDGSTYYADSVKGRFTISRDNAKNTVYLQMNSLKPEDTAVYYCAAYGWGYRYVDVVVSDFYYWGQGTQVTVSS	low polyreactivity
QVQLVESGGGLVQAGGSLRLSCAAYGRIFAYYTMGWYRQAPGKERELVAAINQSGGSTYYADSVKGRFTISRDNAKNTVYFQMNSLKPEDTAVYYCAAKPYSLYARRYAYDYWGQGTQVTVSS	low polyreactivity
REQLQESGGGLVQAGGSLRLSCAASGTIFIRGDMGWYRQSPGKEREFVATIDTGSNTYYADSEKGRFTISRDNAINAVYLQMYCLKPGYTAVYYCVVDYQLSGRLRYWGQGTQVTLSS	low polyreactivity
QVQLVESGGGLVQAGGSLRLSCAASGYTFGYNAMGWYRQAPGKERELVATISSGGTTTYADSVKGRFTISRDNAKNTVYLQMNSLKPEDTAVYYCNVYDYPTYDYWGQGTQVTVSS	low polyreactivity
QVHLVESGGGLVQAGGSLRLSCAASGLIFNIYAMGWYRQAPGKERELVAAISKSGGSTYYADSVKGRFTISRDNAKNTVYLQMNSLKPEDTAVYYCAVVRNSYRVLRLNYWGQGTQVTVSS	high polyreactivity
QVQLVESGGGLVQAGGSLRLSCADSGLIFKYYAMGWYRQAPGKERELVAVITSSGGSTYYADSVKGRFTISRDNAKNTVYLQMNSLKPEDTAVYYCAARRVRWPYDYWGQGTQVTVSS	high polyreactivity
QVQLVESGGGLVQAGGTLRLSCAPSGSIFRVYTMGWYRQAPGKERELVATISRSGVSTNYADSVKGRFTISRDNAKNTVYLQMNSLKPEDTAVYYCNAYYRTKGGFRFGYWGQGTQVTVSS	high polyreactivity
QVQLVQSRGVLVQAGGSLRLSCAASGSIFKYNAMGWYRQAPGKERELVAAITYSGGSTYYADSVKGRFTISRDNAKNTVYLQMNSLKPEDTAVYYCNAYRRFSAFDYWGQGTQVTVSS	high polyreactivity
QVQHEDSGGGLVQAGGSHPLSCAASGSTFRVNAMGWYRQAPGKERELVAAISRRGGSTYYADSVKGRFTISRDNSKNTVYLQMNCLKPEDTAVYYCAAERLGTVQDDYWGQGTQVTVSS	high polyreactivity
QVQLVESGGGLVQAGGSLRLSCAASGRIFAYYAMGWYRQAPGQERELVATITGGGDRTYYADSVKGRFTISRDNAKNTLYLQMNSLKPEDTAVYYCNARVWYYSPYYYWGQGTQVTVSS	low polyreactivity
QVQLVESGGGLVQAGGSHRLSCAASARILYRNAMGRYRQAPGKERELVAAITTRGTSTYYADSVKGRFTISRDNANNTVYLQMNSLKPEDTAVYYCNKVTRDLTQGYDYWGQGTQVTVSS	high polyreactivity
QVQLVDSGGGLVQAGGSLRLSSAASGYIFVVNAMGWYRPAPGKERELVAAIDWGGGSTYADSVKGRFTISRDNAKNTVYLQMNSLKPEDTAVYYCAADLWPYPTDYWGQGTQVTVSS	low polyreactivity
QVQLVESGVGLVQAGGSLRLSCAASGFILGQYTMGWYRQAPGKERELVAAISSSGSTNYADSVKGRFTISRDNAKNTVYLQMNSLKPEDTAVYYCNGDGNPDFYYSFYDEYDYWGQGTQVTVSS	low polyreactivity

From the nanobody polyreactivity screen of Harvey et al. (2022)
